# Laboratory results reported in article PMC7732191 (Science Advances, 2020).
# B1: full-length human KCC2a (potassium-chloride cotransporter 2, SLC12A5) (natural protein, UniProt Q9H2X9-1 1-1139, looked up)
# chain: MSRRFTVTSLPPAGPARSPDPESRRHSVADPRHLPGEDVKGDGNPKESSPFINSTDTEKGKEYDGKNMALFEEEMDTSPMVSSLLSGLANYTNLPQGSREHEEAENNEGGKKKPVQAPRMGTFMGVYLPCLQNIFGVILFLRLTWVVGIAGIMESFCMVFICCSCTMLTAISMSAIATNGVVPAGGSYYMISRSLGPEFGGAVGLCFYLGTTFAGAMYILGTIEILLAYLFPAMAIFKAEDASGEAAAMLNNMRVYGTCVLTCMATVVFVGVKYVNKFALVFLGCVILSILAIYAGVIKSAFDPPNFPICLLGNRTLSRHGFDVCAKLAWEGNETVTTRLWGLFCSSRFLNATCDEYFTRNNVTEIQGIPGAASGLIKENLWSSYLTKGVIVERSGMTSVGLADGTPIDMDHPYVFSDMTSYFTLLVGIYFPSVTGIMAGSNRSGDLRDAQKSIPTGTILAIATTSAVYISSVVLFGACIEGVVLRDKFGEAVNGNLVVGTLAWPSPWVIVIGSFFSTCGAGLQSLTGAPRLLQAISRDGIVPFLQVFGHGKANGEPTWALLLTACICEIGILIASLDEVAPILSMFFLMCYMFVNLACAVQTLLRTPNWRPRFRYYHWTLSFLGMSLCLALMFICSWYYALVAMLIAGLIYKYIEYRGAEKEWGDGIRGLSLSAARYALLRLEEGPPHTKNWRPQLLVLVRVDQDQNVVHPQLLSLTSQLKAGKGLTIVGSVLEGTFLENHPQAQRAEESIRRLMEAEKVKGFCQVVISSNLRDGVSHLIQSGGLGGLQHNTVLVGWPRNWRQKEDHQTWRNFIELVRETTAGHLALLVTKNVSMFPGNPERFSEGSIDVWWIVHDGGMLMLLPFLLRHHKVWRKCKMRIFTVAQMDDNSIQMKKDLTTFLYHLRITAEVEVVEMHESDISAYTYEKTLVMEQRSQILKQMHLTKNEREREIQSITDESRGSIRRKNPANTRLRLNVPEETAGDSEEKPEEEVQLIHDQSAPSCPSSSPSPGEEPEGEGETDPEKVHLTWTKDKSVAEKNKGPSPVSSEGIKDFFSMKPEWENLNQSNVRRMHTAVRLNEVIVKKSRDAKLVLLNMPGPPRNRNGDENYMEFLEVLTEHLDRVMLVRGGGREVITIYS
# modifications: N-acetylglucosamine (glycosylation) at multiple Asn residues of the ECD
# Target: the molecule itself
# Assay: cryo-EM structure
protein,measurement,value
B1,stoichiometry N,2
